Consider 40 sequences from the nanobody polyreactivity screen of Harvey et al. (2022).

A short description of this data set: yeast display, Sf9 membrane polyspecificity reagent, FACS + sequencing; frameworks hold sequencing errors. The essentials:
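A synthetic nanobody library was expressed on Saccharomyces cerevisiae BJ5465 by galactose induction for 36–48 hours. The library was stained for 1 hour at 4 °C with 10% biotinylated, detergent-solubilized Sf9 membrane reagent and enriched with streptavidin microbeads before FACS. Low and high (top ~1%) gates were set on anti-HA fluorescence for expression and streptavidin fluorescence for reagent binding, and each polyreactivity label reflects the gate of origin.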
Consider “QVQLVESGGGLVQAGGSLRLSCAASGRIFFWYAMGWYRQAPGTERELVAGITSGGSTNYADSVKGRFTISRDNAKNTVYLQMNSLKPEDTAVYYCAKRSYRTHTYDYWGQGTQVTVSS”, for which the “polyreactivity (PSR sort gate)” value is “low polyreactivity”. Turning to “QVQLVESGGGLVQAGGSLRLSCAASGSISQPYAMGGYRQAPGKERELVAAIRWSGGSTYYADSVKGRFTISRDNAKNTVYLEMNCLNPEDTAVYYCNKTTYYPSDYVYWGQGTQVTVSS”, the “polyreactivity (PSR sort gate)” value was “low polyreactivity”. Regarding “QVQLVESGGGLVQAGGSLRLSCAASGSIFTYYAMGWYRQAPGKERELVADISKRGGSTYYADSVKGRFTISRDNAKNTVYLQMNSLKPEYTAVYYCATRARYTWRAFEYWGQGTQVTVSS”, the “polyreactivity (PSR sort gate)” value is on record as “low polyreactivity”. The entry for “QVQLVESGGGLVQAGGSLRLSCAASGRIFYTYAMGWYRQAPGKERELVAAISRSGVSTYYADSVKGRFTISRDTAKNTVYLQMNSLKPEDTAVYYCAARWRSGFTSGDYWGQGTQVTVSS” is “low polyreactivity”. Then “QVQLVESGGGLVQAGGSLRLSCAASGFTFALYAMGWYRQAPGKEREFVAAITRSGGITYYADSVKGRFTFSRDNAKNTVYLQINSLKPEDTAVYYCAAVPRWSVYRAYGYWGQGTQVTVSS”, with “high polyreactivity”; and “QVQLVESGGGLVQAGGSLRLSCAASGRIFRPYAMGWYRQAPGKERELVASITRGGSTDYADSVKGRFTISRDNAKNTVYLQMNSLKPEDTAVYYCNKVWRFGYYGSYYWGQGTQVTVSS”, with “high polyreactivity”.

Take “QVQLVESGGGLVQAGGSLRLSCAASGSIFAYYAMGWYRQAPGKERELVAYISRSGGITYYADSVKGRFTLSRDNAKNTVYLQMNSLKPVDTAVDYCAARYSVRPISIYPFDFGYWGQGTQVTVSS”: the “polyreactivity (PSR sort gate)” value was “low polyreactivity”. Then “QVQLVESGGGLVQAGCSLRLSCAASGFTFFKYAMGWYRQAPGTERELVAAITRNGGRTYYADSVKGRFTISRDNAKNTVYLQMNSLKPEDTAVYYCAARYANLRNGYRYDYWGQGTQVTVSS”, with “high polyreactivity”; and “QVQLVESGGGLVQAGGSLRLSCAASGRIFKYYTMVWYRQAPGKERELVAAINSRGGTTYYADSVKGRFTISRDNAKNTVYLQMNSLKPVDTAVYYCAIDRIRDAGYRGLHRFDYWGQGTQVTLSS”, with “low polyreactivity”; and “QVQLVESGGGLVQAGGSLRLSCAASGIIFYYYVMGWYRQAPGKERELVAAISRSGGRTRYADSVKGRFTISRDNAKNTVYLQMNSLKPEDTAVYYCAAVGSVNYDADFDYWGQGTQVTVSS”, with “high polyreactivity”. Regarding “QVQLVESGGGLVQAGGSLRLSCAASGSTFSHYTMGWSRQAPGKERELVAAINYGGASTYYADSVKGRFTISRDNAKNTVFLHMNSLKPEDTSVYYCAAANRPSEQDNYWGQGTQVTVSS”, the “polyreactivity (PSR sort gate)” value was “low polyreactivity”.

“QVQLVESGGGLVQAGGSLRLSCAAYGSIFKRYAMGWYRQAPGKERELVASNSSSGSSTNYADSVKGRFTISRDTAKNTVYLQMNSLKPEDTSVYYCAADTKASGTPVYYSYLYDYWGQGTHVTVSS”: the “polyreactivity (PSR sort gate)” value is given as “high polyreactivity”.

Take “QVQIVESGGGLVQAGGSLRLSCAPSGSNIDYNDMGRYRQAPGKEWELVAAISGRGTRTYYADSVKGRFTISRDNAKNTVYLQMNSLKPEDTAVYYCAASTRGRYWGRFGYWGQRTQVTVSS”: the “polyreactivity (PSR sort gate)” value is reported as “high polyreactivity”. Then “QVQLVESGGGLVQAGGSLRLSCAASGITFFRYAMGWYRQAPGKERELVAAISSSGGSTYYADSVKGRFTISRDNAKNTVYLQMNSLKPEDTAVYYCAAAHGYRYYWGQGTQVTVSS”, with “high polyreactivity”; and “QVQLVESGGGLVQAGGSLRLSCAASGRIFQKYAMGWYRQAPGKERELVAAISSGDSTYADSVKGRFTISRDNAKNTVYLQMNSLKPEDTAVYYCAVDLYDPWWYSYIGEYEYWGQGTQVTVSS”, with “low polyreactivity”; and “QVQLVESGGGLVQAGGSLRLSCDASARTFWRNAMGWYRQAPGKERELVAAISYSGGSTYYADSVKGRFTISRDYAKNTVYLQMNSLKPEDTAVYYCAVVYSTSSLYSGYYWGQGTQVTVSS”, with “low polyreactivity”. With “QVQLVESGGGLVQAGGSLRLSCAASGSIFRAYAMGWYRQAPGKERELVAGITKSGGSTYYADSVKGRFTISRDHAKNTVYLQMNSLKPEDTAVYYCAAYRSRTYGYWGQGTQVTVSS”, the “polyreactivity (PSR sort gate)” value was “high polyreactivity”. The entry for “QVQLVESGGGLVQAGGSLRLSCAASGSTFSNYAMGWYRQAPGKERELVASISNGGSTNYADSVKGRFTISRDNAKNNVYLQMNSLKPEDTAVYYCNAESKAKYDYWGQGTQVTVSS” is “low polyreactivity”; for “QVQLVESGGGLVQAGGSLRLSCAASGRTFQKYAMGWYRQAPGKERELVAAITGSGGSTYYADSVKGRFTISRDIAKYTVYLQMNSLKPEDTAVYYCAAYAYGVWHSQDGGNYWGQGTLVTVSS” it is “low polyreactivity”. The entry for “QVQLVESGGGLVQAGGSLRLSCAASGRTIGWYTMGWYRQERGKERELVAAISGRGGSTTYADSVKGRFTISRDNAKNTVYLQMNSLKPEDTAVYYCAKRRVRGTTRRYGYWGQGTQVTVSS” is “high polyreactivity”; for “QVQLVESGGGLVQAGGSLRLSCAASGRTFPYYAMGWYRQAPGKEREFVAGISRTGGSTYYADSVKGRFTISRDNAKNTVYLQMNSLKPEDTAVYYCNAPYIMTQQGGRRYDYWGQGTQVTVSS” it is “high polyreactivity”; for “QVQLVESGGGLVQAGGSLRLSCAASGIIFWYNTMGWYRQAPGKERELVAAITYGGGSTYYADSVKGRFTISRDNAKNSVYLQMNSLKPEDTAVYYCAVRNWHLIKYLHGYSRYGYWGQGTQVTVSS” it is “low polyreactivity”. The entry for “QVQLVESGGGLVQAGGSLRLICAASGFILKYNAMGWYRQAPGKERELVAAISSNGGRTYYADSVKGRFTISRDNAMNTVYLQMNSLKPVDTAVYYCAAGRLQPVLGGYWGQGTQVTVSS” is “low polyreactivity”; for “QVQLVESGGGLVQAGGSLRLSCAASGIIFAIYAMGWYRQAPGKERELVAAITWRGGSTYYADSVKGRFTISRDNAKNTVYLQMNSLKPEDTAVYYCAAVTKSLYGYDYWGQGSQVTVSS” it is “low polyreactivity”; for “QVQLVESGGGLVQAGASLRLSCAASGRTFWFYAMGWYRQAPGQERELVAAISSGGSTNYADSVKGLFTISRDNAKNTVYLQMNSLKPEDTAVYYCAKVGNIPYGTRYYYNRYDYWGQGTQVTVSS” it is “low polyreactivity”. Turning to “QVQLEESGGGLVQAGGSLRLSCAASGRTITNYAMGWYRQAPGKERELVASINSGGSTSYADSVKGRFTISRDNAKNTVYLQMNSLKPEDTAVYYCNKRYLKFWGHQYGYWGQGTQVTVSS”, the “polyreactivity (PSR sort gate)” value is recorded as “high polyreactivity”.

As for “QVQLVESGGGLVQAGGSLRLSCAASGITFYHYAMGWYRQAPGKEREFVASITSSGGSTYYADSVKGRFTISRDNAKNTVYLQMNSLKPDDSAVYYCAARGYNPYGRKVGYLGQGTQVTVSS”, the “polyreactivity (PSR sort gate)” value was “high polyreactivity”. “QVQLVESGGGLVQAGGSLRLSCAASGSTFSVYAMGLYRQAPGKERELVPAITWSGGSTYYADSVKGRFTISRDNAKNTVYLQMNSLKPEDTAVYYCNAERWLATPTVPWYLYNYWGQGTQVTVSS”: the “polyreactivity (PSR sort gate)” value is “low polyreactivity”.

“QVQLVESGGGLVQAGGSLRLSCAASGFTFYRYAMGWYRQAPGKERELVAAITRTGGSTYYADSVKGRFTISRDIAKNTVYLQMISLKPEDTAVYYCAARVHGTGTLKYPNYYWGQGTQVTVSS”: the “polyreactivity (PSR sort gate)” value is on record as “high polyreactivity”. The entry for “QVQLVESGGGLVQAGGSIRLSCAASGITFRPNAMGWYRQAPGKERELVAAISSGDGTYADSVKGRFTISRDNAKNTVYLQMNSLKPEDTAVYYCNATGQSYVTSEYDYWGQGTQVTVSS” is “low polyreactivity”.

Consider “QVQLVESGGGLVQAGGSLRLSCAASGRIIDRNDMGWYRQAPGKERELVAAISSSGSTNYADSVKGRFTISRDNAKNTVYLQMNSLKPEHTAGYYCADRWRSVLASGTRPVSFDYWGQGTQVTVSS”, for which the “polyreactivity (PSR sort gate)” value is on record as “low polyreactivity”. Then “QVQLVESGGGLVQAGGSLRLSCAASGFIFNAYAMGWYRQAPGKERELVAAISTRGSNTYYADSVKGRFTISRDNAKNTVYLQMNSLKPEDTAVYDCAARGYVTYSKSNYWGQGTQVTVSS”, with “high polyreactivity”; and “QVQLEESGGGLVQAGGSLRLSCAASGYIFQSYAMGWYRQAPGTERELVAAISRGGSTYYADSVKGRFTISRDNAMNSVYLQMNSLKPEDTAVYYCNTLTVGGFRRYYYWGQGSQVTVSS”, with “high polyreactivity”. As to “QVQLVESGGGLVQAGGSLRLSCAASGSTFPRYAMGWYRQAPGKEREFVAVIWSGGSTYYADSVKGRFTISRDNAKNTVYLQMNSLKPEDTAVYYCAAEYHTLSKYSGYATHDYWGQGTQVTVSS”, the “polyreactivity (PSR sort gate)” value is reported as “low polyreactivity”. In the case of “QVQLVESGGGLVQAGGSLRLSCAASGSIFFDNAMGWYRQAPGKERELVATINSGGNTHYADSVKGRFTISRDNAKNTVYLQMNSLKPEDTAVYYCAADFPSDLVDGYNYWGQGTQVTVSS”, the “polyreactivity (PSR sort gate)” value is on record as “low polyreactivity”.

As for “QVQLVESGGGLVQAGGSLRLSCAASGRIFEHNTMGWYRQAPGKERELVAAINWRGGSTYYADSVKGRFTISRYNAKNTVYLQMNSLKPEDTAVYYCNKYWWSYSYASGYNYWGQGTQVTVSS”, the “polyreactivity (PSR sort gate)” value is “high polyreactivity”.

“QVQHVESGGGLVQAGGSLSLICAASGSIFCYYAMGWYRKAPGKERELVAAIDSGGSTYYADSVKGRFTISRDNAKNTVYLQMNILKPEDTAVYYCAAGVSSFSPYDSWGQGTQVTVSS”: the “polyreactivity (PSR sort gate)” value is reported as “low polyreactivity”.

Consider “QVQLVESCGGLVHAGGSLRLSCAASGRTCVGNVMGWYRQAPGKERELVAAISRSGGNTYYADSVKGRFTISRDNAKNTVYLLMNSLKPEDTAVYYCAKVGLYGPVEYDYWGQGTQVTVSS”, for which the “polyreactivity (PSR sort gate)” value is listed as “high polyreactivity”.

On to “QVQLVESGGGLVQAGGSLRLSCAASGFIFNYYTMGWYRQAPGKERELVAVITGGGGSTYYADSVKGRFTISRDNAKNTVYLQMNSLKPEDTAVYYCAAEWFSWGQGTQITVSS”, for which the “polyreactivity (PSR sort gate)” value is “low polyreactivity”.

Consider “QVQLVESGGGLVQAGGSLRLSCAASGFIFYYNTMGWYRQAPGKERELVAAINSGGSTYYADSVKGRFTISRDNAKNTVYLQMNSLKPEDTAVYYCAKRYAVSSRYYYWGQGTQVTVSS”, for which the “polyreactivity (PSR sort gate)” value is “high polyreactivity”.
